# Results from patent publication US20180291083A1 (IMMATICS BIOTECHNOLOGIES, published 2018).
# Biological target: T1, HLA-B*44:02 (human)
# T1 construct: Peptide-receptive MHC class I monomer made by UV cleavage of a UV-sensitive ligand
# Test: UV ligand exchange ELISA; exchange yield grade
# Description: Candidate peptides for T cell based therapies according to the present invention were further tested for their MHC binding capacity (affinity). The individual peptide-MHC complexes were produced by UV-ligand exchange, where a UV-sensitive peptide is cleaved upon UV-irradiation, and exchanged with the peptide of interest as analyzed. Only peptide candidates that can effectively bind and stabilize the peptide-receptive MHC molecules prevent dissociation of the MHC complexes. To determine the yield of the exchange reaction, an ELISA was performed based on the detection of the light chain (β2m) of stabilized MHC complexes. The assay was performed as generally described in Rodenko et al. (Rodenko et al., 2006).
# 96 well MAXISorp plates (NUNC) were coated over night with 2 ug/ml streptavidin in PBS at room temperature, washed 4× and blocked for 1 h at 37° C. in 2% BSA containing blocking buffer. Refolded HLA-A*02:01/MLA-001 monomers served as standards, covering the range of 15-500 ng/ml. Peptide-MHC monomers of the UV-exchange reaction were diluted 100-fold in blocking buffer. Samples were incubated for 1 h at 37° C., washed four times, incubated with 2 ug/ml HRP conjugated anti-β2m for 1 h at 37° C., washed again and detected with TMB solution that is stopped with […]. Absorption was measured at 450 nm. Candidate peptides that show a high exchange yield (preferably higher than 50%, most preferred higher than 75%) are generally preferred for a generation and production of antibodies or fragments thereof, and/or T cell receptors or fragments thereof, as they show sufficient avidity to the MHC molecules and prevent dissociation of the MHC complexes.
row,Binder,peptide exchange yield
1,RENQVLGSGW,50 to 75%
2,SENEQRRMF,50 to 75%
3,EYDLKWEF,20 to 50%
4,EENKPGIVY,20 to 50%
5,AEPGPVITW,50 to 75%
6,REYEYDLKWEF,50 to 75%
7,SEYSHLTRV,20 to 50%
8,YEYDLKWEF,50 to 75%
9,EEFETIERF,20 to 50%
10,NEVLASKY,10 to 20%
11,EVDASIFKAW,20 to 50%
12,TEYPVFVY,10 to 20%
13,AEHNFVAKA,50 to 75%
14,GEGAYGKVF,> 75%
15,GENDRLNHTY,20 to 50%
16,REYNEYENI,20 to 50%

row,Binder,peptide exchange yield
1,SESTFDRTF,50 to 75%
2,QEIQSLLTNW,50 to 75%
3,TDKSFPNAY,10 to 20%
4,KEYDFGTQL,20 to 50%
5,VEDGLFHEF,50 to 75%
6,EEGDTLLHLF,50 to 75%
7,NEFPVIVRL,50 to 75%
8,TEIFKEHNF,20 to 50%
9,SQAPAARAF,20 to 50%
10,GELLGRQSF,50 to 75%
11,SESLPKEAF,20 to 50%
12,EENGEVKEL,20 to 50%
13,SEKETVAYF,50 to 75%
14,VELDLQRSV,20 to 50%
15,EEETILHFF,20 to 50%
16,TEGKRYFTW,50 to 75%

# Second part, the binder after the results:
row,peptide exchange yield,Binder
1,20 to 50%,SEDLAVHLY
2,50 to 75%,KEIGAAVQAL
3,20 to 50%,HEIDGKALFL
4,20 to 50%,EEVTDRSQL
5,50 to 75%,SESKTVVTY
6,20 to 50%,GELPAVRDL
7,50 to 75%,FEVESLFQKY
8,20 to 50%,GENEDNRIGL
9,50 to 75%,AEPLVGQRW
10,50 to 75%,GELGGSVTI
11,50 to 75%,EENPGKFLF
12,50 to 75%,VEIAEAIQL
13,20 to 50%,KEFEQVPGHL
14,> 75%,EEWMGLLEY
15,50 to 75%,SEYADTHYF
16,20 to 50%,KELPGVKKY
17,50 to 75%,NEIKVYITF
18,20 to 50%,AELLAKELY
19,20 to 50%,DEAQARAAF
20,20 to 50%,KEVPRSYEL
21,> 75%,AEYKGRVTL
22,20 to 50%,EEEHGKGREY
